This assay has as its target mouse RANK (RANKL receptor on RAW264 cells) (mouse) (UniProt O35305). Put plainly: cell-based or functional assay.
UniProt O35305, sequence (O35305 31-625): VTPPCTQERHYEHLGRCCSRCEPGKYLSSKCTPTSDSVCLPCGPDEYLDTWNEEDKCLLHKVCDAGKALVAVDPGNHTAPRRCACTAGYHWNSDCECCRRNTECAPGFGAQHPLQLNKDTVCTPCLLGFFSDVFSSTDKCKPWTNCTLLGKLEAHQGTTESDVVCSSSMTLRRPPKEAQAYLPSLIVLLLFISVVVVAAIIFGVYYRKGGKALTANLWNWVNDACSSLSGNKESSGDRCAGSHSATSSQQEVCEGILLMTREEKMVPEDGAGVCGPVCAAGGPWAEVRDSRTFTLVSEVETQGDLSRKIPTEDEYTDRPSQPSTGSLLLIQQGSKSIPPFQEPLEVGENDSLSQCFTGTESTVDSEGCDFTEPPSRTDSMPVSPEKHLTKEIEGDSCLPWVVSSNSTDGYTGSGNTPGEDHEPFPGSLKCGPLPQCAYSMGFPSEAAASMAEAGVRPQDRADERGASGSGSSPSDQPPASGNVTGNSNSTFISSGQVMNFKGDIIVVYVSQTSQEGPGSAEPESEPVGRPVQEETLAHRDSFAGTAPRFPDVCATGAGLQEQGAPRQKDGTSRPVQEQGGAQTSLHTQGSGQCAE

As for “GST-RANKL (fused protein of glutathione-S-transferase with human soluble RANKL residues 140-317) (ligand)”, the osteoclast induction activity in RAW264 cells (at concentrations of 10 nM and 5 nM) (fold over mouse soluble RANKL) is > 2.

(Values after patent US20100105612A1.)
